Reference: patent US20050048600A1

Molecular target: human LH3 protein with His-tag at the amino-terminus, produced in Sf9 cells (human) (UniProt O60568)
Test: cell-based or functional assay

human LH3 protein with His-tag at the amino-terminus, produced in Sf9 cells (human), sequence (O60568 25-738): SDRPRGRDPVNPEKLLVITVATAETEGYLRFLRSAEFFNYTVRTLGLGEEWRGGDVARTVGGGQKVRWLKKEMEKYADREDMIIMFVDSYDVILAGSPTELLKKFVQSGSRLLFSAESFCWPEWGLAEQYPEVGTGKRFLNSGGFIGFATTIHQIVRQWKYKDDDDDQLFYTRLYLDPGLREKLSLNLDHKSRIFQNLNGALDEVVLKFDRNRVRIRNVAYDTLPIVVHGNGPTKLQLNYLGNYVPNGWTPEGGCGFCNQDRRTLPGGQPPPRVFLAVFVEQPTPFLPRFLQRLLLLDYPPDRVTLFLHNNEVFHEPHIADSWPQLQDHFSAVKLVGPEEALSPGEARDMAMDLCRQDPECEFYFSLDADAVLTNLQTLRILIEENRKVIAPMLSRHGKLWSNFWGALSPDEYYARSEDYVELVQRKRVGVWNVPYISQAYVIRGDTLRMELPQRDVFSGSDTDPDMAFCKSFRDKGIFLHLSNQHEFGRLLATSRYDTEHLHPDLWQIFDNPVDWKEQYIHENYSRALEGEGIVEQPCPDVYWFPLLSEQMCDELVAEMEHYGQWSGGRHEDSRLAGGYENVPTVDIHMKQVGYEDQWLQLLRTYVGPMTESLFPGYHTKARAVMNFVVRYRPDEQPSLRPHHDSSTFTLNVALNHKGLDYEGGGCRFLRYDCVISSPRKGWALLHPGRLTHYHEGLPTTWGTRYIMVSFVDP

Substance: monoclonal antibodies against His-tag (Clontech) (antibody)
- GGT activity in the presence of antibody (% of activity with nonimmune serum): 100%
